Source: article PMC12697862

Target: IP3R1 channel fragment E
Assay: co-IP (IP: Flag, immunoblot for Myc) with band quantification
Conditions: LV-GRP75-Flag(mutant) with IP3R1E-Myc; n = 5; means ± SEM; read off a plot

Row | Substance | response (relative level of Myc/Flag (IP group))
1 | GRP75, transfected for co-IP (from UniProt P38647) K567Q; K612Q | 0.47
2 | GRP75, transfected for co-IP (from UniProt P38647) K567R; K612R | 1
